Reference: the nanobody polyreactivity screen of Harvey et al. (2022)

Assay: yeast display, Sf9 membrane polyspecificity reagent, FACS + sequencing; frameworks hold sequencing errors
Outline: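 Synthetic nanobody libraries on Saccharomyces cerevisiae BJ5465 were galactose-induced for 36–48 hours, stained 1 hour at 4 °C with 10% biotinylated, detergent-solubilized Sf9 membrane reagent and enriched on streptavidin microbeads. FACS then separated cells into low and high (top ~1%) gates by anti-HA (expression) and streptavidin (reagent binding) fluorescence. Genes were colony-PCR amplified, MiSeq 2 × 250 sequenced and CDR-length filtered. A clone's polyreactivity label is that of its gate of origin.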

| Sequence | polyreactivity (PSR sort gate) |
| --- | --- |
| QVQLVESGGGLVQAGGSLRLSCAASGFTFDYYDLGWYRQAPGKERELVAGITYSGGRTRYADSVKGRFTISRDNAKNTVYLQMNSLKPEDTSVDYCAARPGYPYRMNYWGQGTQVTVSS | low polyreactivity |
| QVQLVESGGGLVQAGGSLRLSCAASGFIFRRYTMGWYRQAPGKERELVATITRSVNTDYADSVKGRFTISRDNAKNTVYLQMNSLKPEDTAVYYCAARKYYYFPVAYDYWGQGTQVTVSS | high polyreactivity |
| QVQLVESGGGLVQAGGSLRLSCAASGSTFYYNTMGWYRQAPGKERELVAAISWRGGSTYYADSVKGRYTISRDNAKNTVYLQMNSLKPEDTAVYYCAALTYYGSDYWGQGTQVTVSS | high polyreactivity |
| QVQLVESGGGLVQAGGSLRLSCAASGFTFYGYAMAWYRQAPGTERELVAAITRRGGNTYYADSVKGRFTISRDNAKNTVYLQMNSLKPEDTAVYYCNAVLRYGHGPYQKGDYWGQGSQVTVSS | high polyreactivity |
| QVQLVESGGGLVQAGGSRRLSCAASGSIFSQYAMGWYRQAPGKEREFVAAINWSGGRTRYADSVKGRFTISRDNAKNTVYLQMNSLKPEDTAVYYCAKVYSLYSYSGRYDYWGQGTQVTVSS | high polyreactivity |
| QVQLVESGGGLVQAGGSLRLSCAASGFTFIRNAMGWYRQAPGKDRELVAAISRSGGSTYYADSVKGRFTISRDNAKYTVYLQMNSLKPEDTAVYYCPVTLYLKWQGGAYDYWGQGTQVTVSS | low polyreactivity |
| QVQLVESGGGLVQAGGSLRLSCAASGFIFPENDMGWYRQAPGKERELVATISGDTSTNYADSVKGRFTISRDNAKHTVYLQMNSLKPEDTAVYYCNRKLKGRKSHKLDYDYWGQGTQVTVSS | low polyreactivity |
| QVQHVESGGGLVQAGRSLRLTSAASGIIFSGYAIGWYRQAPGKERHLVAAISSRCGGTYYADSVKGRFTISRDNAKNTVYFPLNSLKPEDTALYYCAAKRPACIQYSYYYWGQGTQVTVSS | high polyreactivity |
| QVQLVESGGGLVQAGGSLRLSCAASGRIFPRNTMGWYRQAPGKERELVAAISQSGGRTYYADSVKGRFTISRDYAKNTVYLQMNSLKPEDTAVYYCAAREYRYDMYYWGQGTQVTVSS | high polyreactivity |
| QVQLVESGGGLVQAGGSLRLSCAASGSTFLVYAMGWYRQAPGKEMEFVAAISWSGGSTFYADSVKGRFTISRDNAKNTVYLQMNSLKPVDTAVYYCAARQAGYSGRKLYYWGQGTQVTVSS | low polyreactivity |
| QVQLVESGGGLVQAGGSLRLSCAASGSTFTVYAMGWYRQAPGKERELVAAITNGGRTYYADSVKGRFTISRDNAKNTVYLQMNSLKPEDTAVYYCAADVYYDDYLYDYWGQGTQVTVSS | high polyreactivity |
| QVQLVESGCGLVHAGGSLRLSCAASGSNFGDYAMGCYRQAPGKERELVAAITKSGGTTYYADSVKGRFTISRDNAKNTVYLQMNSLKPEDTSFYYCAADPIRYRSRHKYGYWGQGTQVTVSS | low polyreactivity |
| QVQHVESGGGLVQAGGSLRLSCAASGFTFATYAMGWYRQAQGKERELVAAISRGTSTYYADSVKGRFTISRVNAKNTVYLQMNSLIPDDTAVYYCAATSSFRYDYWGKGTQVTVSS | low polyreactivity |
| QVQLVESGGGLVQAGGSLRLSCAASGNTLAYYVMGWYRQAPGKERELVAAITSGGTTNYADSVKGRFTISRDNAKNTVYLQMNSLNPEDTAVYYCAGCPSKRPPWLRQGGYDYWGQGTQVTVSS | low polyreactivity |
| QVQLVESGGGLVQAGGSLRLSCAASGGTFVYNAMGWYRQAPGKERELVAAIRVRGDTTYYADSVKGRFTISRDNAKYTVYLQMNSLKPEDTAVYYCAAYPDYSYYYWGQGTQVTVSS | high polyreactivity |
| QVHLVESGGGLVQAGGSLRLSCSASGRTFPYNAMGWYRQSPGKERELVAAISWRGGSTYYADSVKGRFTISRDNAKNTVYLQMNSLKPEDTAVYYCNALYPVSYDHRGDYWGQGTQVTVSS | high polyreactivity |
| QVQLVESGGGLVQAGGSLGLSCAASGRTFAKYAMGWYRQAPGKERELVAAITRGDTTNYADSVKGRFTISRDNAKNTGYLQMHRLKPEDTAVYYCAATPDPPHTYEYWGQVTQVTVSS | low polyreactivity |
| QVQLVESGGGLVQAGGSLRLSCDAYGSTFERYVMGWYCQRLGKKGSWLPVLNHNGGSTYYADSVKGRFTISRDNAKNTVYLQMNSLKPEVTAVYYCAPSFRTVLDDGYWGQGSQVTVSS | low polyreactivity |
| QVQLEESGGGLFQAGGSLRLSCAASGRTFRLYDMGWYRQAPGKERELVAAISKSGGSTYYADSVKGRFTISRDYAKNPVYVQMNSLKPEDTAVYYCAAGTRVCEYDYWGQGTQVTVSS | high polyreactivity |
| QVQLVESGGGLVQAGGSLRLSCAASGSIFRSNTMGWSRQAPGKERELVARISSTGGSTYYADSVKGRFTISRDNAKKTVYLQLNSLKPEDTAVYYCNKVRGINHLYDMNYWGQGTQVTVSS | high polyreactivity |
| QVQLVESGGGLVQAGGSLRLSCAASGRTVLHYDMGWYRQAPGKERELVASISSGVSTHYADSVKGRFTISRDNAKNTVYLQMNSLQPEDTAVYYCAARPYRFGRYGYDYDYWGQGTQVTVSS | high polyreactivity |
| QVQLVESGGGLVQAGGSLRLSCAASGYIFTGNAMGWYRQAPGKERELVAAIDSGGSTYADSVKGRFTISRDNAKNTVYLQMNSLKPEDTAVYYCNADQNEDTYLSYYGDYDYWGQGTQVTVTS | low polyreactivity |

| Sequence | polyreactivity (PSR sort gate) |
| --- | --- |
| QVQLVESGGGLVQAGGSLRLSCPASGRIFTGYAMGWYRQSPGKERELVASISDSGASTYYADSVKGRFTISRDNAKNTVYLQMNSLKPEDTAVYYCAADWTLDTSYGYYADDFWGQGTQVTVSS | low polyreactivity |
| QVQLVESGGGLVQAGGSLRLSCAASGRIFYYNAMGWYRQAPGKERELVAAITSGGSTNYADSVKGRFTISPDNAKNTVYLQMNSLKPEDTAVYYCNARRYGSPRSEVHYDYCGQGTQVTVSS | low polyreactivity |
| QVQLVESGGGLVQAGGSLRLSCAASGRIFPTYTMGWYRQAPGKERELVAAIRRGGGRTYYADSVKGRFTISRDNAKNTVYLQMNSLKPEDTAVYYCNKDVYGYSRTGPRGYDYWGQGTQVTVSS | high polyreactivity |
| QVQLVESGGGLVQAGGSLRLSCAASGRIFDYNTMGWYRQAPGKEREFVAAITSSGGRTYYADSVKGRFTISRDNAKNTVYLQMNSLKPEDTAVYYCAARLNIYYRRMGYWGQGTQVTVSS | high polyreactivity |
| QVQLVESVGGLVQAGGSLRLSCAASGRIFVYYAMGWYRQAPGKERELVAAINSSGGRTYYADSVKGRVTISRDNAKNTVSLQMNSLQPEDTAVYYCAAVYRSWTSSNGRNYWGQGTQVTVAS | high polyreactivity |
| QVQLVESGGGLVQAGGSLRLSCAASGSIFRWYAMGWYRQAPGKERELVAAITSGGSTYYADSVKGRFTISRDNAKNTVYLQMNSLKPEDTAVYYCNAAKLASHTYDYWGLGTQVTVSS | low polyreactivity |
| QVQLVESGGGLVQAGGSLRLSCAASGSTFNYNAMGWYRQAPGKERELVAAITYSGSSTYYADSVKGRFTISRDNAKNTVYLQMNSLKPEDTAVYYCAAPPYNRPGYGYDYWGQGTQVTVSS | high polyreactivity |
| QVQLVESGGGLVQAGGSLRLSCAASGSIFYSNAMGWYRQAPGKERELVATIRSGGTTYYADSVKGRFTISRDNAKNTVYLQMNSLKPEDTAVYYCAKRYGVKYWGQGTQVTVSS | high polyreactivity |
| QVQLVESGGGLVLAGGSLRLSCAASGRTFGYYTMGWYRQAPGKERELVAGISSAGSTNYADSVKGRFTLSRDYAKNTVYLQMNSLKPEDTAVYYCAARYQFYRYDSTYYYCGQGTQVTVSS | high polyreactivity |
| QVQLVESGGGLVQAGGSLRLSCAASGSIFGYYAMGWYRQAPGKERELVAAIRVSGGRTYYADSVKGRFTISRDNAKNTVYLQMNSLKPEDTAVYYCAKSLIPAYEYWGQGTQVTVSS | high polyreactivity |
| QVQLGESRGGLVQAGGSLRLSCAASGTFAYKTIGWYRQAPGKEREWVAAITSSGGSTYYADSVKGRFTISRDNAKNTVYVLMNSLKPEDTAVYYCDKGSTWYYRKYDYWGQGTQVTVSS | high polyreactivity |
| QVQLVESGGGLVQAGGSLRLSCAASGSTFVYNAMGWYRQAPGKEREFVAVINWSGGRTYADSVKGRFTISRDNAKNTVYLQMNSLKPEDTAVYYCNAERRTYRVALQYRRYDYWGQGTQVTVSS | high polyreactivity |
| QVQLVESGGGLVQAGGSLRLSCAASGFIFDGYTMGWYRQAPGKERELVAAITTSGTSTYYADSVKGRFTISRDNAKNTVYLQMNSLKPEDTADYYCAARQYRHRVKYYYWGQGTQVTVSS | high polyreactivity |
| QVQLVESGGGLVQAGGSLRLSCAASGRTFRFNAMGWYRQAPGKERELVAAISSRGGNTYYADSVKGRFTISRDNAKNTVYLQMNSLKPVDTSVYYCNKDLNYWGYAKYYGYYYWGQGTQVTVSS | high polyreactivity |
| QVQLVESGGGVVQAGGSLRLSWAASGFIFAVYAMGWYRQSTGKERELVAAITFDGDTTYYADSVKGRFTISRDNANNTVYLQMKILKPDTAVYYCAAEYIKYLWYLHVDYWGQGTQVTVSS | low polyreactivity |
| QVQLVESGGGLVQAGGSLRLSCAASGSIFFSYAMGWYRPAPGKERELVAGINWSGGSTYADSVKGRFTLSRDNAKNTVYLQINSLKPEDTAVYYCAAKYYSERSRYHYWGQGTQVTVSS | low polyreactivity |
| QVQLVESGGGLVQAGGSLRLSCDASGRTFGLNAMGWYRQAPGKERDLVAAISSSGGSTYYADSVKWRFTISRDNAKNTVYLQMNRLKPEDNAVYYCAKVLYRYGNDYYYWGQGTQVTVSS | high polyreactivity |
| QVQLVESGGGLVQAGGSLRLSCAASGRILSYYAMGWYRQAPGKERELVARITGRGGSTYYADSVKGRFTISRDNAKNTVYLQMNSLKPEDTAVYYCAAVPWVVYSGYDYWGQGTQVTVSS | low polyreactivity |
| QVQLVESGGGLVHAGGSLRLSCAASGSISTRNAMGWYRQAPGKDRELVASITSGGSTYYADSVKGRFTISRDNAKNTVYLQMNSLKPEDTAVYYCAARRRRPWGYGYGYWGQGTQVTVSS | high polyreactivity |
| QVQLVESGGGLVQAGGSLRLSCAASGRIFSVYAMGWYRQAPGKEREFVAAITKGGVGTYYADSVKGRFTISRDNAKNTVSLQMNCLKPEDTAVYYCAARGTSRQTWLFRYNWNDYWGQGTQVTVSS | high polyreactivity |
| QVQLVESGGGLVQAGGSLRLTCAASGSTFYYNAMGWYRQAPAKERELVADISWRGGITYYADSVKGRFTISRDNAKNTVYLQMNSLKPEDTAVYYFKADAESFDDGYWGQGTQVTVSS | low polyreactivity |
